The text below walks through data of paper PMC3212534, “Structural-Functional Characterization and Physiological Significance of Ferredoxin-NADP^+ Reductase from Xanthomonas axonopodis pv. citri” (PLoS ONE, 2011).

The target in series [1] is T1, pea-FNR (Lathyrus oleraceus, UniProt P10933).
T1 construct: gene PETH; plastidic FNR; preparation not described here
T1 sequence (P10933 53-360): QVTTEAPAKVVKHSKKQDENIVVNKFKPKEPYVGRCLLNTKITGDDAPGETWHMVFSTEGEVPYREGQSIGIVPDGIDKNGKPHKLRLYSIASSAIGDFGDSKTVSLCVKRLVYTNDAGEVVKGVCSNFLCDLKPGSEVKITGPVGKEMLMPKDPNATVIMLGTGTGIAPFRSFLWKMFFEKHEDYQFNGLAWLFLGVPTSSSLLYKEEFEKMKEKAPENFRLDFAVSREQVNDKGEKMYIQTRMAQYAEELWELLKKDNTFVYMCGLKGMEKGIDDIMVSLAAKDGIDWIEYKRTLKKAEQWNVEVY
The series can be described thus: UV-visible difference spectroscopy. Type of series: binding. To be noted: 0.3 mM NADP+; Kd in Table 1 is quoted from reference 49.

The target in series [2] is T2, Xac-FNR (Xanthomonas citri, UniProt A0AAI7ZED9).
T2 construct: gene fpr; entire coding region in pET28a, N-terminal His6 tag cut with thrombin; expressed in E. coli BL21(DE3)pLysS; FAD-containing subclass I bacterial FNR
T2 sequence (A0AAI7ZED9 entry or part of it): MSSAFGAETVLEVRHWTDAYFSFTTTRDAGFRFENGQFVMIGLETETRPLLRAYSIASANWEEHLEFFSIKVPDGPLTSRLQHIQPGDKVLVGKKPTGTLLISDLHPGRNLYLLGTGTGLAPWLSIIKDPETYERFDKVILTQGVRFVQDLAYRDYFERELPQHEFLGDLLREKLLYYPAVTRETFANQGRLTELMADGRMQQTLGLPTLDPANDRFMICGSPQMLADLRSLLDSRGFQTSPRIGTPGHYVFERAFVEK
The series can be described thus: difference absorption spectroscopy titration. To be noted: read-out: NADPH / K d. Type of series: binding. From the text: difference absorption spectroscopy titration on Xac-FNR

Series [3] deals with T3, Ec-FNR (Escherichia coli, UniProt P28861).
T3 construct: gene fpr; subclass II bacterial FNR; preparation not described here
T3 sequence (P28861 2-248): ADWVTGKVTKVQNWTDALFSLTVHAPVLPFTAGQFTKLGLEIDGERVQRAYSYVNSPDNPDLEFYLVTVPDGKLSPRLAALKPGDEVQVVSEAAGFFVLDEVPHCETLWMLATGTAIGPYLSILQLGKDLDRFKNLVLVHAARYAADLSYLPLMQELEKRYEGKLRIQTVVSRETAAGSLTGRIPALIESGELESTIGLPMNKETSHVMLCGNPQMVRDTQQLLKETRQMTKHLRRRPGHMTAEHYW
The series can be described thus: UV-visible difference spectroscopy. To be noted: 0.3 mM NADP+; Kd in Table 1 is quoted from reference 49. Type of series: binding.

Series [4] has as its system NC(=O)C1=CN([C@@H]2O[C@H](COP(=O)(O)OP(=O)(O)OC[C@H]3O[C@@H](n4cnc5c(N)ncnc54)[C@H](O)[C@@H]3O)[C@@H](O)[C@H]2O)C=CC1. The series can be described thus: purified protein. To be noted: 1 mM potassium ferricyanide as acceptor, 50 mM Tris-HCl pH 8.0, 30 °C.
In series [5] the test system is NC(=O)C1=CN([C@@H]2O[C@H](COP(=O)(O)OP(=O)(O)OC[C@H]3O[C@@H](n4cnc5c(N)ncnc54)[C@H](OP(=O)(O)O)[C@@H]3O)[C@@H](O)[C@H]2O)C=CC1. The series can be described thus: purified protein. To be noted: potassium ferricyanide as acceptor, 50 mM Tris-HCl pH 8.0, 30 °C.

As for `NC(=O)c1ccc[n+]([C@@H]2O[C@H](COP(=O)(O)OP(=O)(O)OC[C@H]3O[C@@H](n4cnc5c(N)ncnc54)[C@H](OP(=O)(O)O)[C@@H]3O)[C@@H](O)[C@H]2O)c1` [NADP^+], the UV-visible difference spectroscopy result is “Differential UV-visible spectra elicited by the interaction between the enzymes and NADP^+” in series [1]; “Differential UV-visible spectra elicited by the interaction between the enzymes and NADP^+” in series [3]. In series [2], the Kd is 9.7 ± 0.4 µM.
As to “Xac-FNR (Xanthomonas citri subsp. citri 306)”, in series [4], the Km amounted to 3300 ± 1400 µM, the kcat was found to be 3.2 ± 1.3 s⁻¹ and the kcat/Km was 1000 M⁻¹ s⁻¹. Further, in series [5], the Km came to 10.8 ± 0.5 µM, the kcat was found to be 122 s⁻¹ and the kcat/Km was 1.13e+07 M⁻¹ s⁻¹.

A word on the Km: it is the substrate concentration at which the rate is half of its maximum. By kcat is commonly meant the number of substrate molecules converted per active site and unit of time at saturation. Broadly, the kcat/Km is the turnover number divided by the Michaelis constant.
